Entries after “also recorded” stand apart in the source; their conditions may differ.
Experiments:
[1] = tested on: ACHN xenograft tumor (renal cancer cell line); assay: Xenograft efficacy study with Ab #6: ACHN; format: in vivo, nu/nu mice
From the text: (§1) In this example, four xenograft tumor models were used to identify tumor cell lines that responded to treatment with the anti-ErbB3 antibody Ab #6. The four xenograft tumor models studied represent different indications: MALME3M (melanoma cancer line; ATCC No. HTB-64), ADRr (ovarian cancer cell line; NCI-60, cosmic sample ID No. 905987), ACHN (renal cancer cell line; ATCC No. CRL-1611) and DU145 (prostate cancer cell line; ATCC No. HTB-81).
(§2) In the xenograft tumor models, mice (nu/nu mice: 3-4 week old female mice, T-cell deficient; outbred; Albino background; from Charles River Labs, Wilmington, Mass.) are implanted in the right flank with […] cells/mouse (depending on cell line) in 200 μl via subcutaneous injection. Mice are monitored for initial tumor growth. Tumor cells are allowed to grow for several days until the tumor volume is approximately 200 mm^3. The tumor volume is calculated as V=(π/6 (L×W^2). The mice are treated with the Ab #6 antibody at a dosage of 600 μg/injection every 3 days (qd3). Control mice are treated with phosphate buffered saline (PBS).
(§3) Tumor volume is measured for 60-80 days.
(§4) As a measure of responsiveness of the tumor to Ab #6, the exponential growth rate is determined, which described the experimental data best. The following formula is used to describe the exponential growth. […]

ZR75-1 xenografts = assay: Nude mouse xenograft test of MM-121: ZR75-1; format: in vivo
From the text: (§5) FIG. 11 is a graph depicting the ability of an anti-ErbB3 antibody (Ab #6, MM-121) to inhibit proliferation of ACHN cells and cells of other cell lines. The center line of the three parallel diagonal lines represents the line computed to maximally separate MM-121 responders from non-responders. Predicted responder MDA-MB-231 was subsequently tested as nude mouse xenografts and was confirmed as a responder (i.e., growth of MDA-MB-231 as nude mouse xenografts was inhibited by MM-121 treatment). Other predicted responders would not grow adequately as xenografts and so could not be tested. Predicted non-responders ZR75-1 and HOP92 were subsequently tested as nude mouse xenografts and were confirmed as non-responders (i.e., growth of each as nude mouse xenografts was not inhibited by MM-121 treatment). Other predicted non-responders have not yet been tested experimentally.

ErbB3 [2] = target: T1, ErbB3 (UniProt P21860 20-643, limits assumed); assay: Kinexa; same on-rate as 1.43e5 M^-1s^-1, converted to model units per well
T1 construct: Elsewhere it speaks of the ectodomain of human ErbB3; also called E3; HER3

ErbB3 [3] = target: T1, ErbB3; assay: Kinexa
IGROV1 xenograft tumor = assay: Xenograft study with Ab #6 (predicted set): IGROV1; format: in vivo, mice
Experimental: as §2
(§6) To test these model predictions, three additional in vivo xenograft studies were performed. The IGROV1, OVCAR8 and SKOV3 cell lines were used in xenograft studies conducted as described in Example 1, wherein mice were treated with 600 μg of Ab #6 every 3 days or with PBS as a control. The xenograft responses, as determined by changes in tumor volume (in mm^3) over time, are summarized in the graphs of FIGS. 9A-9C. Again, the Growth Rate Reduction (GRR) value for each cell line was calculated using the following formula:
(§7) Growth Rate Reduction=1−(Ab #6 Growth Rate)/(PBS Growth Rate)

MDA-MB-231 xenografts = assay: Nude mouse xenograft test of MM-121: MDA-MB-231; format: in vivo
From the text: as §5

HOP92 xenografts = assay: Nude mouse xenograft test of MM-121: HOP92; format: in vivo
From the text: as §5

OVCAR8 xenograft tumor = assay: Xenograft study with Ab #6 (predicted set): OVCAR8; format: in vivo, mice
Experimental: as §2, §6, §7

[4] = tested on: MALME3M xenograft tumor (melanoma cancer line); assay: Xenograft efficacy study with Ab #6: MALME3M; format: in vivo, nu/nu mice
From the text: as §1, §2, §3, §4

[5] = tested on: ADRr xenograft tumor (ovarian cancer cell line); assay: Xenograft efficacy study with Ab #6: ADRr; format: in vivo, nu/nu mice
From the text: as §1, §2, §3, §4

BT474 xenograft tumor = assay: Xenograft study with Ab #6 (MM-121): BT474; format: in vivo, mice
From the text: In this example, the data obtained for the four cell lines examined in the xenograft studies described in Example 1 (ADRr, ACHN, DU154 and MALME3M) and four cell lines including the three examined in the xenograft studies described in Example 7 (IGROV 1, OVCAR8 and SKOV3), as well as a fourth, BT474, also examined in xenograft studies as described in Example 7, were further examined to determine whether direct biomarkers for Ab #6 (MM-121) responsiveness could be identified.
Next, it was examined whether the concentration of heregulin (HRG) in combination with one receptor concentration (e.g., ErbB1, ErbB3) effectively classified the xenograft data into responders and non-responders. As illustrated in the graph of FIG. 11 (in which the log of the concentration of HRG is plotted against the log of the concentration of ErbB1), these two concentration measurements, HRG and one of the ErbB receptors, were able to accurately classify the xenograft data into responders and non-responders. More specifically, the data for four non-responders BT474, MALME3, ADRr and IGROV1, were separable from the data for four responders, OVCAR8, SKOV3, ACHN, and DU154, thereby allowing for classification of non-responders versus responders. […] For this example, EGFR is measured by FACS and HRG is measured by RT-PCR. […]

[6] = tested on: DU145 xenograft tumor (prostate cancer cell line); assay: Xenograft efficacy study with Ab #6: DU145; format: in vivo, nu/nu mice
From the text: as §1, §2, §3, §4

ErbB3 [7] = target: ErbB3 (Homo sapiens, UniProt P21860); assay: Ab #6 rate constants measured by Kinexa (inhibitor parameter values, Table 13); format: binding
SKOV3 xenograft tumor = assay: Xenograft study with Ab #6 (predicted set): SKOV3; format: in vivo, mice
Experimental: as §2, §6, §7

[8] = Ab #6 600 μg/injection every 3 days vs PBS
[9] = 600 μg of Ab #6 every 3 days vs PBS
[10] = Ab #6 600 μg/injection every 3 days vs PBS, negative GRR set to zero

kon (ErbB3 [2]): 143000 M⁻¹ s⁻¹
koff (ErbB3 [3]): 0.00011 s⁻¹
kon (ErbB3 [3]): 143000 M⁻¹ s⁻¹
kr Ab #6_1: Ab #6 inhibitor dissociation from ErbB3 (ErbB3 [7]): 0.00011 s⁻¹
kr Ab #6_2: Ab #6 inhibitor dissociation from a second ErbB3 (ErbB3 [7]; 2 * krmm121_1): 0.00022 s⁻¹
kf Ab #6_1: Ab #6 inhibitor binding to ErbB3 (ErbB3 [7]; unit conversion from M^−1s^−1 /(Vmedia * Av/Num_cells), Num_cells = 30,000 per well): 7.15E−11 molecules^−1 sec^−1
B1: anti-ErbB3 monoclonal antibody Ab #6 (antibody, V domains shown)
VH: EVQLLESGGGLVQPGGSLRLSCAASGFTFSHYVMAWVRQAPGKGLEWVSSISSSGGWTLYADSVKGRFTISRDNSKNTLYLQMNSLRAEDTAVYYCTRGLKMATIFDYWGQGTLVTVSS
VL: QSALTQPASVSGSPGQSITISCTGTSSDVGSYNVVSWYQQHPGKAPKLIIYEVSQRPSGVSNRFSGSKSGNTASLTISGLQTEDEADYYCCSYAGSSIFVIFGGGTKVTVL
notes: also called MM-121
GRR (Tumor Growth Rate Reduction) [1, 8]: 28.0%
effect of antibody treatment on tumor growth (in words) ([1]; vs PBS control): inhibited tumor growth; also recorded: mid-range responsiveness
growth as nude mouse xenografts under MM-121 treatment (ZR75-1 xenografts): not inhibited
experimentally observed responsiveness to Ab #6 based on GRR value (IGROV1 xenograft tumor): non-responder
GRR (Tumor Growth Rate Reduction) (IGROV1 xenograft tumor; [9]): 6.3%
growth as nude mouse xenografts under MM-121 treatment (MDA-MB-231 xenografts): inhibited
growth as nude mouse xenografts under MM-121 treatment (HOP92 xenografts): not inhibited
experimentally observed responsiveness to Ab #6 based on GRR value (OVCAR8 xenograft tumor): responders
GRR (Tumor Growth Rate Reduction) (OVCAR8 xenograft tumor; [9]): 91.4%
GRR (Tumor Growth Rate Reduction) [4, 10]: 0%
effect of antibody treatment on tumor growth (in words) ([4]; vs PBS control): did not inhibit tumor growth; also recorded: no response
GRR (Tumor Growth Rate Reduction) [5, 10]: 0%
effect of antibody treatment on tumor growth (in words) ([5]; vs PBS control): did not inhibit tumor growth; also recorded: no response
xenograft responsiveness (responder / non-responder) (BT474 xenograft tumor): non-responders
GRR (Tumor Growth Rate Reduction) [6, 8]: 72.6%
effect of antibody treatment on tumor growth (in words) ([6]; vs PBS control): inhibited tumor growth; also recorded: highest responsiveness
Ab #6 inhibitor binding to ErbB3 (on-rate before unit conversion) (ErbB3 [7]): calculated as 1.43e5 M^−1s^−1/(Vmedia * Av/Num_cells).
experimentally observed responsiveness to Ab #6 based on GRR value (SKOV3 xenograft tumor): responders
GRR (Tumor Growth Rate Reduction) (SKOV3 xenograft tumor; [9]): 19.6%
